Data from patent publication US20100081620A1.

T1: ADAM 8 catalytic domain (mouse) (mouse) (UniProt Q05910)
T1 sequence (looked up): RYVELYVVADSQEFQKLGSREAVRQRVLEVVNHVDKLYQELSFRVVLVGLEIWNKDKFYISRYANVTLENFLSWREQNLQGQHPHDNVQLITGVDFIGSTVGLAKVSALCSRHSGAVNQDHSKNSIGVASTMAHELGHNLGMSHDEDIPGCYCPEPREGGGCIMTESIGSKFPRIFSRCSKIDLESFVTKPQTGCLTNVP


Experiments:
MMP 13 = test: enzyme inhibition, fluorescent peptide substrate
MMP 14 = test: enzyme inhibition, fluorescent peptide substrate
MMP 1 = test: enzyme inhibition, fluorescent peptide substrate
MMP 2 = test: enzyme inhibition, fluorescent peptide substrate
MMP 3 = test: enzyme inhibition, fluorescent peptide substrate
MMP 9 = test: enzyme inhibition, fluorescent peptide substrate
[1] = biological target: T1, ADAM 8 catalytic domain (mouse) (mouse); test: cell-based or functional assay
[2] = biological target: Human ADAM10 protease containing the catalytic/disintegrin domains (human) (UniProt O14672); test: cell-based or functional assay
[3] = biological target: TACE catalytic domain (human) (human) (UniProt P78536); test: cell-based or functional assay
[4] = biological target: Human TACE protease containing the catalytic/disintegrin domains (human) (UniProt P78536); test: cell-based or functional assay
Chain of Human TACE protease containing the catalytic/disintegrin domains (human) (P78536 215-671 limits assumed): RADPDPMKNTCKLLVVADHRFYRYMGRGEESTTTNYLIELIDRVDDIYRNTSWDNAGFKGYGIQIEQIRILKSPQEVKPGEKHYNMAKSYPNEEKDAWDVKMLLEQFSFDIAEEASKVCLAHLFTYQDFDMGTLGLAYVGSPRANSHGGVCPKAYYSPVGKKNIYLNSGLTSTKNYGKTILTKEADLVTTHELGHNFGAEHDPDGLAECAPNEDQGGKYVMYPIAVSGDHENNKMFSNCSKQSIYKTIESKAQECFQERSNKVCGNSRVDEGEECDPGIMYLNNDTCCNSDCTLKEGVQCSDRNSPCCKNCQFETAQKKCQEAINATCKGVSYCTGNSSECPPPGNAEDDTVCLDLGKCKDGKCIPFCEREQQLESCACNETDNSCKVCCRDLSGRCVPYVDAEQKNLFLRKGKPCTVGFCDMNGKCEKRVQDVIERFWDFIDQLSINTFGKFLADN

Chain of TACE catalytic domain (human) (human) (P78536 215-477 limits assumed): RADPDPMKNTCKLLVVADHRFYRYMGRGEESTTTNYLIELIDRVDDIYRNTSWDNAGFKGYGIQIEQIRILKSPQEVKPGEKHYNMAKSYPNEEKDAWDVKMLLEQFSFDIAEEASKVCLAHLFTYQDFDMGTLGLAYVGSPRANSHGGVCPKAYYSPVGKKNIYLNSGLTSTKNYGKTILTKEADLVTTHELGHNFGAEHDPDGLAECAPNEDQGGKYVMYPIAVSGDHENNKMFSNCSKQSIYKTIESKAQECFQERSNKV
Chain of Human ADAM10 protease containing the catalytic/disintegrin domains (human) (O14672 214-672 limits assumed): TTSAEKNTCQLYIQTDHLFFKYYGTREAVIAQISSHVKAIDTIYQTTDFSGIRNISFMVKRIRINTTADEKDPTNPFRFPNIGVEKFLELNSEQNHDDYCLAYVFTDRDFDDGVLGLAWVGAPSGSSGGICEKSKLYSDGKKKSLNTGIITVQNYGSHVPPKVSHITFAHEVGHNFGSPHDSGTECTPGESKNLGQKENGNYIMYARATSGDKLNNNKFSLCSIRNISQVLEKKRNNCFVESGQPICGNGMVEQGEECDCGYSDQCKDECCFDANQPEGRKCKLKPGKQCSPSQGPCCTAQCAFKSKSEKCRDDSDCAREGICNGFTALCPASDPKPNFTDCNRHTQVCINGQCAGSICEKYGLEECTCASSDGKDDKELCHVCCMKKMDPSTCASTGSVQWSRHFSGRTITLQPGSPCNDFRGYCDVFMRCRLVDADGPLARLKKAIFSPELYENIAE
Chain of MMP 9 (P14780 107-707): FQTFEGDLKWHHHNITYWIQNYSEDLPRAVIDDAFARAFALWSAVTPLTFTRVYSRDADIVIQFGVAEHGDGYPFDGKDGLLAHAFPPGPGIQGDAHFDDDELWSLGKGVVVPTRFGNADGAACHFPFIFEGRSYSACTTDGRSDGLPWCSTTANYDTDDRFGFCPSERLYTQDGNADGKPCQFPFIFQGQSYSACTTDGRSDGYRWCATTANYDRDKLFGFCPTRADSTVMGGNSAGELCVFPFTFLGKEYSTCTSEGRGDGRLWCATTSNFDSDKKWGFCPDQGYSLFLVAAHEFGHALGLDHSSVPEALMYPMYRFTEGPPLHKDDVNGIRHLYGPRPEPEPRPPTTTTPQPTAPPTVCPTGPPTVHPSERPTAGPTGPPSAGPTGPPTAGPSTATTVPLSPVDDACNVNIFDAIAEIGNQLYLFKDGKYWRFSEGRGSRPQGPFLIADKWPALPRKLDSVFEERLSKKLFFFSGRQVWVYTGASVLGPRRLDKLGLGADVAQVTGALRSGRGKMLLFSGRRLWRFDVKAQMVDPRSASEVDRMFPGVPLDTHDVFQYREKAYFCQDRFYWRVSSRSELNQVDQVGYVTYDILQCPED
Chain of MMP 3 (P08254 100-477): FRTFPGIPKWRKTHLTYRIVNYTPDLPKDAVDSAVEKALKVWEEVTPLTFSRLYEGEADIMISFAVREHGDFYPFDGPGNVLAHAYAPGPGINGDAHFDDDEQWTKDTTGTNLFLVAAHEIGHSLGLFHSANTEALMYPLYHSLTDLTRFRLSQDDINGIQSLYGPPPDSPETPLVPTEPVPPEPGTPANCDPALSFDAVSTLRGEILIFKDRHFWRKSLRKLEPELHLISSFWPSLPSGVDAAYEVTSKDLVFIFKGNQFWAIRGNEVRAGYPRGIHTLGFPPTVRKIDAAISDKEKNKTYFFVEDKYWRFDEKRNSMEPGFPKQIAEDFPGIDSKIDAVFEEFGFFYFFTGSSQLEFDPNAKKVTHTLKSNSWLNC
Chain of MMP 2 (P08253 110-660): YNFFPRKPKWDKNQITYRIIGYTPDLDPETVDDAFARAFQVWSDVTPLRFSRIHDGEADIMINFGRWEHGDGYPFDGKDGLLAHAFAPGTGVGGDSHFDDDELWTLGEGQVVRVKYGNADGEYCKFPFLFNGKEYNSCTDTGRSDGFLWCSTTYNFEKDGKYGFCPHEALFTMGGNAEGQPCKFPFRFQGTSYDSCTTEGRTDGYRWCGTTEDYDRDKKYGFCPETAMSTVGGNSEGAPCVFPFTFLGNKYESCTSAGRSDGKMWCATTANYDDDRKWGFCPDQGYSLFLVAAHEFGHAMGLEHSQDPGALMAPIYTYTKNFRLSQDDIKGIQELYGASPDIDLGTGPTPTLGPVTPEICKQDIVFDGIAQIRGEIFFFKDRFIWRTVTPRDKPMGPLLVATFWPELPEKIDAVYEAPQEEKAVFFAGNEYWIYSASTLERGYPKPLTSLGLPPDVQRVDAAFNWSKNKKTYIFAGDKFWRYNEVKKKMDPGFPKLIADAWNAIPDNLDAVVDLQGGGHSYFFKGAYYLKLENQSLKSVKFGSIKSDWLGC
Chain of MMP 1 (P03956 100-469): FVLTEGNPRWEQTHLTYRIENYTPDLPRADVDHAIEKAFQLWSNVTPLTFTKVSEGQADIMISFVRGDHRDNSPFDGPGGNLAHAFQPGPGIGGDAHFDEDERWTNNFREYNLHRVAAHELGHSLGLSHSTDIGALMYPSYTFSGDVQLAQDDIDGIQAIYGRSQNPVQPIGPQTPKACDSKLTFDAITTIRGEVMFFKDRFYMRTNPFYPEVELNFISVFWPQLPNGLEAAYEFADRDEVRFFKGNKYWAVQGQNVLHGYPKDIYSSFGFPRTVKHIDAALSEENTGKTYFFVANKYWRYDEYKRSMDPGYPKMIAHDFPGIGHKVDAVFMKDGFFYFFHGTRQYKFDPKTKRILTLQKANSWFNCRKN

| Binder | Ki (MMP 13) [nM] | Ki (MMP 14) [nM] | Ki (MMP 1) [nM] | Ki (MMP 2) [nM] | Ki (MMP 3) [nM] | Ki (MMP 9) [nM] | prodomain inhibition of enzyme activity (percent) [1] [%] | prodomain inhibition of enzyme activity (percent) [2] [%] | prodomain inhibition of enzyme activity (percent) [3] [%] | prodomain inhibition of enzyme activity (percent) [4] [%] |
| --- | --- | --- | --- | --- | --- | --- | --- | --- | --- | --- |
| wt ProADAM 10 23-213 (C-terminal His tag) (protein) NPLNKYIRHYEGLSYNVDSLHQKHQRAKRAVSHEDQFLLLDFHAHGRQFNLRMKRDTSLFSDEFKVETSNKVPDYDTSHIYTGHIYGEEGSFSHGSVIDGRFEGFIKTRGGTFYIEPAERYIKDRILPFHSVIYHEDDINYPHKYGPQGGCADHSVFERMRKYQMTGVEEGARAHPEKHAASSGPELLRKKHHHHHH | > 2000 | > 2000 | > 2000 | > 2000 | > 2000 | > 2000 | – | – | – | – |
| Pro ADAM 17 (mouse) (protein, UniProt Q9Z0F8 18-214, looked up, not shown: small tags and cut ends) PRPPEEAGSGSHPRLEKLDSLLSDYDILSLANIQQHSIRKRDLQSATHLETLLTFSALKRHFKLYLTSSTERFSQNLRVVVVDGKEESEYSVKWQNFFSGHVVGEPDSRVLAHIGDDDVTVRINTDGAEYNVEPLWRFVNDTKDKRMLVYKSEDIKDFSRLQSPKVCGYLNADSEELLPKGLIDREPSEEFVRRVKR | – | – | – | – | – | – | 17 | 11 | 37 | – |
| Pro ADAM 8 (mouse) (protein, UniProt Q05910 18-186, looked up, not shown: small tags and cut ends) GPPLPHVKQYEVVWPRRLAASRSRRALPSHWGQYPESLSYALGTSGHVFTLHLRKNRDLLGSSYTETYSAANGSEVTEQLQEQDHCLYQGHVEGYEGSAASISTCAGLRGFFRVGSTVHLIEPLDADEEGQHAMYQAKHLQQKAGTCGVKDTNLNDLGPRALEIYRAQP | – | – | – | – | – | – | 9 | 25 | 50 | 13 |
